Where “and” joins values, the source holds several entries; their conditions need not be identical. Identical values can stand only once.
Assays:
Hep G2 cells = assay: Fetuin-induced apoptosis, Hoechst staining confirmed by MTS assay; type: cell-based, Human
Method: The purified fetuin was tested on various cancer cell lines. […] The DNA condensation and breakage of nuclei which are the characteristics for apoptosis were observed by staining the cell with Hoechst dye at 0.1 ug/ml.
Various concentrations of Zn-charged fetuin prepared as described were incubated with cell lines for 6 hr. Percent of cell under apoptosis was determined by Hoechst staining and confirmed by MTS assay. The concentration of Zn-charged fetuin for the induction of 50% of cells under apoptosis (LD50) was determined. Each data represents the average of three assays.

PC-12 cells = assay: Apoptosis of PC-12 cells in the presence of serum; type: cell-based; details: PC-12 cells in 10% horse serum+5% FBS; 5 uM Fetuin
Method: PC-12 cells were seeded in 10% heat-inactivated horse serum+5% FBS+RPMI 1640 media for 1-2 days and treated with 5 uM Fetuin. […] The apoptosis-inducing activity of Fetuin at high concentration can be applied in therapy of neuroblastoma.

[1] = Rabbit Study to Determine the Safety of Fetuin by Intravenous Administration; type: in vivo; design: Temp Increase / Wt. Gain Mar. 6, 2000 / Wt. Gain April 6, 2000 / Wt. Gain April 19, 2000 / Mean of Wt.Gain / Globulin / Alanine Transferase / Aspartate Transferase / Mean of ALT / Mean of AST: unit not given here; details: rabbits; for Temp Increase: monitored 3 hours post injection; for Blood Glucose Level / Mean of blood Glucose level: non-fasting; for Wt. Gain: over 7 week period; for Albumin / Globulin: serum
Method: Rabbits weighing 1.75 to 2.5 kg are used in the study, 2 rabbits/group. The control group receives 1 ml of saline. […] All dilutions are made with sterile pyrogen free saline (0.9%). The study is designed to limit to an acceptable level the risk of a febrile reaction in patients. The animals are given their respective doses of Fetuin at two-day interval for a total of three doses if no reaction occurs. Blood samples are collected for a baseline prior to treatment and then 24-36 hours after the third treatment. At the end of the treatment period, blood is drawn to perform hematology to compare with the baseline levels. The body temperature is recorded for three hours post injection to determine if a febrile reaction is produced. The body temperature is monitored prior to injection (30 min) and then at 30 min interval for three hours. Prior to sacrifice, blood is drawn from each animal to determine the serum level of Fetuin. Organs are examined in all animals. The target organs: spleen, lymph nodes, thymus are examined for evidence of increased size. All tissues excised are preserved in 10% formalin for subsequent histopathology if necessary. Observations made at each dose level are tabulated to see if there is any correlation of symptoms and/or mortality and dose level of the test material. Body weights and necropsy results are recorded. Rabbit body temperature increases for each dose level is reported and conclusions made from the study.

[2] = Antigenic response after Fetuin injection; type: in vivo; details: mice, rat and rabbits to bovine
Text: However, the species are mice, rat and rabbits to bovine, not human to bovine. The amino acid sequence of Fetuin homologue between species is about 65%. Because the mechanism of Fetuin exerting the drug effect is by binding to the growth factors, this is expected to have less immune response than other protein nature drugs.

[3] = test system: immune system (splenic T- and B-cells, response to SRBC); details: mouse, in vivo
Method: The Balb/C mice weighed 20-30 g with six to eight weeks of age and divided equally between male and female are used. Fetuin is administered IV or IP to each group of six animals either a single dose or multiple doses ranging from 0.05 mg to 5 mg per 20 g body weight. The volume of each injection is 0.2 ml. Phosphate buffered saline is used as the control and dilution vehicle.
Flow cytometric characterization of splenic T- and B-cells in Fetuin treated mice: T cells of mice can be recognized by the presence of Thy 1.2 or Thy 1.1 (depending on the genotype of the mouse), receptors isolated on the surface of peripheral T cells (lymph node, spleen and blood) as well as thymic epithelia.

## Fetuin: Fetal bovine fetuin purified from fetal bovine serum by modified Spiro method; 60 Kd glycoprotein, homologue of alpha 2-HS glycoprotein
Hep G2 cells; Hep G2, Zn-charged fetuin, 6 hr, average of three assays
  LD50 of Fetuin-induced Apoptosis: 20 µM
Hep G2 cells; HepG2, purified fetuin, Hoechst dye 0.1 ug/ml
  induction of apoptosis: strongly induced apoptosis
PC-12 cells
  apoptosis-inducing activity: apoptosis-inducing activity was observed
[1]
  signs of distress during the test: None of the animals displayed any signs of distress
[1]; iv
  toxicity, conclusion of rabbit study: no toxicity
[1]; iv, 65.7 mg/kg
  Alanine Transferase: 54 and 29
  Albumin/Globulin Ratio: 13.8 and 11.2
  Aspartate Transferase: 28 and 32
  Blood Urea Nitrogen: 21 mg/dL and 24 mg/dL
  Cholesterol: 69 mg/dL and 71 mg/dL
  Cholesterol Mean: 70 mg/dL
  Hematocrit: 37.0% and 40.2%
  Hematocrit % Mean: 38.6%
  Hemoglobin: 12.6 g/dL and 13.4 g/dL
  Hemoglobin Mean: 13.0 g/dL
  Mean of ALT: 41.5
  Mean of AST: 30
  Mean of BUN: 22.5 mg/dL
  Mean of WBC: 8.5 K/ul
  Mean of Wt.Gain: 1.14
  Spleen Wt.: 1.72 g and 1.54 g
  Spleen Wt. Mean: 1.63 g
  Thymus Wt.: 5.21 g and 6.56 g
  Thymus Wt. Mean: 5.85 g
  Ttl Serum Protn: 5.9 g/dL and 6.1 g/dL
  WBC, K/ul: 6.9 K/ul and 10.1 K/ul
  Wt. Gain April 6, 2000: 3.15 and 3.28
  Wt. Gain April 19, 2000: 3.65 and 3.72
  Wt. Gain Mar. 6, 2000: 2.48 and 2.61
  Blood Glucose Level: 94 mg/dL and 88 mg/dL
  Mean of blood Glucose level: 91 mg/dL
  Wt. Gain: 1.17 kg and 1.11 kg
  Albumin: 5.5 and 5.6
  Globulin: 0.4 and 0.5
[1]; iv, 65.7 mg/kg, Apr. 6, 2000
  Temp Increase: 0
[1]; iv, 65.7 mg/kg, Mar. 6, 2000
  Temp Increase: 0
[1]; iv, 126 mg/kg
  Alanine Transferase: 42 and 32
  Albumin/Globulin Ratio: 8.8
  Aspartate Transferase: 37 and 66
  Blood Urea Nitrogen: 20 mg/dL and 17 mg/dL
  Cholesterol: 66 mg/dL and 49 mg/dL
  Cholesterol Mean: 57.5 mg/dL
  Hematocrit: 38.2% and 38.6%
  Hematocrit % Mean: 38.4%
  Hemoglobin: 12.4 g/dL and 12.9 g/dL
  Hemoglobin Mean: 12.6 g/dL
  Mean of ALT: 37
  Mean of AST: 51.5
  Mean of BUN: 18.5 mg/dL
  Mean of WBC: 8.1 K/ul
  Mean of Wt.Gain: 0.76
  Spleen Wt.: 1.37 g and 1.9 g
  Spleen Wt. Mean: 1.43 g
  Thymus Wt.: 4.90 g and 5.21 g
  Thymus Wt. Mean: 5.05 g
  Ttl Serum Protn: 5.9 g/dL
  WBC, K/ul: 6.7 K/ul and 9.5 K/ul
  Wt. Gain April 6, 2000: 3.31 and 3.10
  Wt. Gain April 19, 2000: 3.56 and 3.26
  Wt. Gain Mar. 6, 2000: 2.60 and 2.70
  Blood Glucose Level: 221 mg/dL and 123 mg/dL
  Mean of blood Glucose level: 172 mg/dL
  Wt. Gain: 0.96 kg and 0.56 kg
  Albumin: 5.3
  Globulin: 0.6
[1]; iv, 126 mg/kg, Apr. 6, 2000
  Temp Increase: 0
[1]; iv, 126 mg/kg, Mar. 6, 2000
  Temp Increase: 0
[1]; iv, 185 mg/kg
  Alanine Transferase: 49 and 36
  Albumin/Globulin Ratio: 5.8 and 10.2
  Aspartate Transferase: 26 and 23
  Blood Urea Nitrogen: 19 mg/dL and 22 mg/dL
  Cholesterol: 35 mg/dL and 56 mg/dL
  Cholesterol Mean: 45.5 mg/dL
  Hematocrit: 35.2% and 37.3%
  Hematocrit % Mean: 36.3%
  Hemoglobin: 11.4 g/dL and 12.3 g/dL
  Hemoglobin Mean: 11.8 g/dL
  Mean of ALT: 42.5
  Mean of AST: 24.5
  Mean of BUN: 20.5 mg/dL
  Mean of WBC: 8.75 K/ul
  Mean of Wt.Gain: 1.02
  Spleen Wt.: 1.71 g and 1.64 g
  Spleen Wt. Mean: 1.67 g
  Thymus Wt.: 5.26 g and 5.60 g
  Thymus Wt. Mean: 5.43 g
  Ttl Serum Protn: 6.1 g/dL and 5.6 g/dL
  WBC, K/ul: 10.7 K/ul and 6.8 K/ul
  Wt. Gain April 6, 2000: 3.19 and 3.26
  Wt. Gain April 19, 2000: 3.69 and 3.77
  Wt. Gain Mar. 6, 2000: 2.80 and 2.61
  Blood Glucose Level: 117 mg/dL and 89 mg/dL
  Mean of blood Glucose level: 103 mg/dL
  Wt. Gain: 0.89 kg and 1.16 kg
  Albumin: 5.2 and 5.1
  Globulin: 0.9 and 0.5
[1]; iv, 185 mg/kg, Apr. 6, 2000
  Temp Increase: 0
[1]; iv, 185 mg/kg, Mar. 6, 2000
  Temp Increase: 0
[1]; any dosages of Fetuin
  rectal temperature change over 3 hr post injection: did not cause body temperature increase
[2]
  hypersensitivity reaction after Fetuin injection: no hypersensitivity reaction was shown
[3]
  cell surface density of s-Ig on the B-cells: no significant differences
  fraction of lymphocytes which were B-cells (s-Ig+): no differences between treatment groups
  fraction of splenic lymphocyte that were T-cells: remained constant
  mean level of expression of Thy 1.2: did not differ significantly

From patent US20030044400A1, “Composition and method for treating cells” (priority 2001, published 2003)
